Values of other authors in US20070299244A1, “Liposome allowing liposome-entrapped substance to escape from endosome” (Japan Science and Technology Agency, priority 2005, published 2007).
Where two headings read alike, the source gives them in different places.

Substance: GALA: synthetic peptide comprising the amino acid sequence represented by SEQ ID NO:1 (AALAELAEALAEALHEALAEALAEALAAEW; Designed peptide called “GALA”)
- Proportion of α helix structures (pH 5.0): about 70%
- Proportion of α helix structures (pH 7.4): about 20%
